From patent publication US9539315B2, “Methods, agents and peptides for inhibiting matrix metalloproteinase-2 signaling” (New York University, priority 2011, dated 2017)
Entries after “also recorded” stand apart in the source; their conditions may differ.

Tests used:
[1] = system: OX40L; assay: OX40L expression on DCs (staining); assay type: cell-based, human; conditions: DCs exposed for 2 days, stained for OX40L
Experimental: A) DCs were exposed to MMP-2 […] or zymosan […], a known activator of NF-κB that acts via TLR2, for the indicated time. Cytosolic and nuclear fractions were isolated and p50 contents were measured by ELISA. […] C) OX40L over-expression on DCs induced by MMP-2 is inhibited by an inhibitor of NEMO, the NEMO binding domain (NBD) peptide, but not by the corresponding negative control, a NBD mutant.
(§1) A) DCs were exposed to various TLR agonists for 2 days before cells were stained for OX40L. […] B) TLR2-transfected and engineered HEK cells were incubated with MMP-2 (5 mg/ml) or various controls. All conditions were also tested in the presence of a blocking antibody for TLR2. TNFα was used to activate NF-κB in a TLR-independent manner. Twenty hours later, NF-κB activation was measured.
Antibody to OX40L (11C3.1) was from Biolegend. Blocking antibodies to TLR-2 and TLR-6 were from Invivogen. Antibodies to GATA-3, IL-4 (8D4-8), IL-5 (JES1-39D10), IL-13 (JES10-5A2), TNFα (MAb11), IFNγ (25723.11), perforin (δG9), GranzymeB (GB11), CD40 (5C3), CD80 (L307.4), CD83 (HB15e), CD86 (IT2.2), HLA-DR (TU36), fluorescein isothiocyanate-conjugated antibodies to CD45RA (HI100) and CD45RO (UCHL1), and antibody to CD4 (RPA-T4) were purchased from BD Biosciences Pharmingen. Alexa fluor 488-conjugated antibody to IL-17 (eBio64DEC17), phycoerythrine-conjugated antibody to T-bet (4B10).
(§2) PBMCs were purified from healthy-(HD) or cord blood- (CB) donors and plated at 40×10^6 cells/10 mL/dish in complete IMDM with 5% PHS. Cells were allowed to adhere for 2 h at 37° C. Non-adherent cells were removed. The monocyte-enriched fraction was supplemented with 100 UI/mL rhGMCSF and 300 UI/mL rhIL-4 (R&D Systems) on days 0, 2 and 4. Immature DCs were harvested on day 5 and matured using poly(I:C) at 5 μg/mL/10^6 DCs (Amersham). Secretion of IL-12p70, TNFα, IL-1β, IL-6, IL-8 and IL-10 was assessed on both immature and mature DCs using the Human Inflammatory Cytokine Cytometric Bead Array (BD Pharmingen).

[2] = system: DCs; assay: Inflammatory cytokine secretion by DCs (cytokine bead array); assay type: cell-based, human; conditions: MMP-2 0.5 and 5 mg/ml, active or inactive; supernatants after eighteen hours
Experimental: DCs were exposed to MMP-2 (0.5 and 5 mg/ml) in various forms: active, heat-inactivated (HI), inhibited by a specific inhibitor (IMMP-2), PEX (last third of MMP-2, amino acids 445-635 of SEQ ID NO: 1), overlapping peptides (20-mer) spanning MMP-2, or controls. Eighteen hours later, supernatants were harvested and TNFα, IL-6, IL-8 and […] levels were measured by cytokine bead array.
as §2

[3] = target: T1, human TLR-2 (Homo sapiens, UniProt O60603); assay: HEK-Blue-hTLR2 NF-κB SEAP reporter assay; assay type: cell-based; conditions: MMP-2 5 mg/ml; twenty hours; with/without TLR2 blocking antibody
T1 construct: host or cells: HEK293 (HEK-Blue-hTLR2 cells)
T1 sequence (O60603 21-784): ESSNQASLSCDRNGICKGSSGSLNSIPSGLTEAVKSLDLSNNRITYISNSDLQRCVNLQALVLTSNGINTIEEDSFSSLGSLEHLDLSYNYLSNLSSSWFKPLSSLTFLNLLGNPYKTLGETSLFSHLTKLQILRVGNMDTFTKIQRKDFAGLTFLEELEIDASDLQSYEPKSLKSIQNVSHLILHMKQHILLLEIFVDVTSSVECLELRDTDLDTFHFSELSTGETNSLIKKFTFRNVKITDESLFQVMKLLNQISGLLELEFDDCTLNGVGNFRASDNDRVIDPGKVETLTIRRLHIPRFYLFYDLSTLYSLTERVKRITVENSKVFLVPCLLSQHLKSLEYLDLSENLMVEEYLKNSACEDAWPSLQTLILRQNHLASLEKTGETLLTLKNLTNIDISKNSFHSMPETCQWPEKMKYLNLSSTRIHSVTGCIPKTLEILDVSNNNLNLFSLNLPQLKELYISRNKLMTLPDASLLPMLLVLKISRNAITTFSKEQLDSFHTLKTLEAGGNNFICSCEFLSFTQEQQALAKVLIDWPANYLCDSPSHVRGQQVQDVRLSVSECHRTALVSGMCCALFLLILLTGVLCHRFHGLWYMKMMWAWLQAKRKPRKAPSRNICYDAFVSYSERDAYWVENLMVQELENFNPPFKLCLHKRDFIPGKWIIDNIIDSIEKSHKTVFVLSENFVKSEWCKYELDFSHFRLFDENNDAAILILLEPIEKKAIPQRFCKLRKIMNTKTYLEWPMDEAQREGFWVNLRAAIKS
Experimental: as §1
TLR2-transfected and engineered HEK cells were incubated with MMP-2 (5 mg/ml), TLR2 agonists, recombinant PEX and 3 pools of overlapping 20-mers covering MMP-2. OLP1: mix of 22 overlapping peptides covering MMP-2 from amino-acid 1 to 220; OLP2: mix of 22 overlapping peptides covering MMP-2 from amino-acid 210 to 440; OLP3: mix of 22 overlapping peptides covering MMP-2 from amino-acid 450 to 660. Twenty hours later, NF-κB activation was measured. Neither PEX nor the peptides triggered NF-κB signaling.
TLR-2-transfected (stably) HEK-Blue™ Cells represent a very efficient high throughput reagent for screening due to an easy read-out. […] Levels of SEAP can be readily determined with QUANTI-Blue™, a detection medium that turns purple/blue in the presence of alkaline phosphatase. […] Inhibition of NF-κB activation by any agents/molecules can be assessed and confirmed in DCs (which endogenously express TLR2 or are engineered to express exogenous TLR2) in order to corroborate the initial screening results in a native or more natural context. […] TLR-2-expressing cells, such as those described herein, can be incubated with agents/molecules and molecular interactions assessed using methods, such as, e.g., co-immunoprecipitation of MMP-2 and TLR-2 from the cell lysates. […] Additional methods can be used to evaluate if MMP-2 and TLR-2 interact directly, including other affinity-based methods (e.g., affinity chromatography or panning), competitive inhibition assays, and various visualization techniques, such as fluorescence resonance energy transfer (FRET) and others which are known in the art. […]

B1: matrix metalloproteinase-2 (protein)
chain: YNFFPRKPKWDKNQITYRIIGYTPDLDPETVDDAFARAFQVWSDVTPLRFSRIHDGEADIMINFGRWEHGDGYPFDGKDGLLAHAFAPGTGVGGDSHFDDDELWTLGEGQVVRVKYGNADGEYCKFPFLFNGKEYNSCTDTGRSDGFLWCSTTYNFEKDGKYGFCPHEALFTMGGNAEGQPCKFPFRFQGTSYDSCTTEGRTDGYRWCGTTEDYDRDKKYGFCPETAMSTVGGNSEGAPCVFPFTFLGNKYESCTSAGRSDGKMWCATTANYDDDRKWGFCPDQGYSLFLVAAHEFGHAMGLEHSQDPGALMAPIYTYTKNFRLSQDDIKGIQELYGASPDIDLGTGPTPTLGPVTPEICKQDIVFDGIAQIRGEIFFFKDRFIWRTVTPRDKPMGPLLVATFWPELPEKIDAVYEAPQEEKAVFFAGNEYWIYSASTLERGYPKPLTSLGLPPDVQRVDAAFNWSKNKKTYIFAGDKFWRYNEVKKKMDPGFPKLIADAWNAIPDNLDAVVDLQGGGHSYFFKGAYYLKLENQSLKSVKFGSIKSDWLGC
**Q.** What does the source list for B1?
**A.** OX40L expression on DCs [1]: induce OX40L expression; inflammatory cytokine secretion by DCs (TNFα, IL-6, IL-8, IL-1β) [2]: secrete inflammatory cytokines; also recorded: significantly expressed; NF-κB activation in TLR2-transfected HEK cells [3]: activates NF-κB through TLR-2 triggering; also recorded: activate NF-κB in a TLR2-dependent manner
